According to US20180022822A1 (MABIMMUNE DIAGNOSTICS, published 2018):

Legend:
[1] = biological target: T1, FAP peptide 521-539 with alanine substitution at position 529 (human); test: alanine-mutated linear peptides spotted on nitrocellulose
T1 construct: also called spot 10
T1 peptide: KMILPPQFARSKKYPLLIQ
Experimental: (§1) Binding capacity of the antibodies was tested on these peptides spotted onto a nitrocellulose membrane (JPT Peptide Technologies, Berlin, Germany) and using HRP-conjugated donkey anti-human IgG secondary antibody (Jackson immunoResearch, Newmarket, UK) followed by detection of HRP activity (FIGS. 4A and C). In brief, epitope mapping was performed using scans of overlapping peptides. The entire sequences of FAP were synthesized as a total of 188 linear 15-mer peptides with an 11 amino acid overlap between individual peptides. Those peptides were spotted onto nitrocellulose membranes (JPT Peptide Technologies, Berlin, Germany). The membrane was activated for 5 min in methanol and washed in TBS for 10 min at RT. Non-specific binding sites were blocked for 2 h at RT with Roti®-Block (Carl Roth GmbH+Co. KG, Karlsruhe, Germany). Human antibodies (1 μg/ml) were incubated in Roti®-Block for 3 h at RT. Binding of primary antibody was determined using HRP-conjugated donkey anti-human IgG secondary antibody. Blots were developed and evaluated using ECL and ImageQuant 350 detection (GE Healthcare, Otelfingen, Switzerland).

[2] = biological target: T2, FAP peptide 521-539 with alanine substitution at position 532 (human); test: as above
T2 construct: also called spot 13
T2 peptide: KMILPPQFDRSAKYPLLIQ
Experimental: as §1

[3] = biological target: T3, recombinant human Fibroblast Activation Protein (FAP) with N-terminus 6x histidine tag (human, UniProt Q12884 26-760); test: ELISA: rhFAP held on the plate by an anti-tag antibody, HRP-labelled NI-206.82C2 titrated, TMB, OD 450 nm [continued) E]
T3 construct: Bought protein; also called rFAP; rhFAP
T3 sequence: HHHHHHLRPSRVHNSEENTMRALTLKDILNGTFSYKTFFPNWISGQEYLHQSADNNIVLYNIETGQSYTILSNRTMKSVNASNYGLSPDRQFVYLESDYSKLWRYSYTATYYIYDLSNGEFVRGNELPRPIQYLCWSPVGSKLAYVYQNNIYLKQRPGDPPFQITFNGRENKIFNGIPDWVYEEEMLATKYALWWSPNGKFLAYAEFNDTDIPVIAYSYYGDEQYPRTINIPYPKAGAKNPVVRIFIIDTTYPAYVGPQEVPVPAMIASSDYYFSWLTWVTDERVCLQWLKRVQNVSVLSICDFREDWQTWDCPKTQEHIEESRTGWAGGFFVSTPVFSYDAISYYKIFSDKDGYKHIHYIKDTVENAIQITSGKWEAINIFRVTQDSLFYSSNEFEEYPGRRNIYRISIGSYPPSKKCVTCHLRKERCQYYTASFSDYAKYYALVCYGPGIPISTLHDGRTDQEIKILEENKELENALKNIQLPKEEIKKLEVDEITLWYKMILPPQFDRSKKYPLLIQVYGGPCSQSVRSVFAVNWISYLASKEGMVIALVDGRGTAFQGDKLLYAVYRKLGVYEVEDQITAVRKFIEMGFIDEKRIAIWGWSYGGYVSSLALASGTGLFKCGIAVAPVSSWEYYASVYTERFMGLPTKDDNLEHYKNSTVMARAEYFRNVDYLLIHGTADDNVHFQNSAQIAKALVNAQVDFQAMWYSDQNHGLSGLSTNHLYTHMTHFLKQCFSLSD
Excerpt: Active recombinant human enzymes evaluated in this assay include: Fibroblast Activation Protein (FAP; Sino Biologicals, 10464-H07H), Dipeptidyl Peptidase IV (DPPIV, BPS Bioscience 80040), Dipeptidyl Peptidase 8 (DPP8, BPS Bioscience 80080), Dipeptidyl Peptidase 9 (DPP9, BPS Bioscience 80080), and Prolyl Oligopeptidase/Prolyl Endopeptidase (POP/PREP, BPS Bioscience 80105). Each recombinant peptidase was expressed with a purification tag, and attached to the 96 well ELISA plate using either a mouse anti-Histidine antibody (CloneTech), or a mouse anti-Glutathione S-transferase (GST, Sino Biologicals, 111213-MM02) tag antibody. […] H-Gly-Pro-AMC (ATT Bioquest, 13450) was used to validate the presence and activity of DPP4, DPP9, and DPP8. Z-Gly-Pro-AMC (BaChem, 11145) was used to evaluate the activity of FAP and POP/PREP. […] Following a washing step, bound antibody was detected using 3,3′,5,5′-Tetramethylbenzidine (TMB) substrate.

[4] = biological target: T3, recombinant human Fibroblast Activation …; test: SPR (ProteOn): rhuFAP amine-coupled on a GLC chip, antibody injected at 106.7, 53.3, 26.7, 13.3 and 6.7 nM
Experimental: This was achieved by varying the concentration of the activation reagents used in each channel. Three activation solutions were prepared using a threefold serial dilution of a stock mixture containing 0.4 M EDC+0.1 M sulfo-NHS and injected for 360 s. Then rhuFAP at 2.5 μg/ml in coupling buffer (10 mM HEPES, 150 mM NaCl, 3.4 mM EDTA, 0.005% Tween 20, pH 5.2) was coupled for 1020 s at 25 μL/min. Excess reactive esters were blocked for 600 s with 1 M ethanolamine hydrochoride. […] serial dilution of […] starting at 16 μg/mL (106.7 nM) was injected for 400 s at 60 μL/min. A single injection delivered a full concentration series, using buffer to complete a row of six samples and provide an in-line blank for double-referencing the response data. Association and dissociation phases were measured for 400 s and 3600 s, respectively.

B1: NI-206.82C2 (antibody, V domains shown)
VH: QVQLQQSGPGLVKPSQTLSLTCAISGDSVSSNSVTWNWIRQSPSRGLEWLGRTYYRSKWYNDYAVSVKGRITINPDTSKNQFYLQLKSVTPEDAAVYYCARDSSILYGDYWGQGTLVTVSS
VL: QAVLTQPSSLSASPGASASLTCTLPSGINVGTYRIFWFQQKPGSPPQYLLSYKSDSDNHQGSGVPSRFSGSKDASANAGILLISGLQSEDEADYYCMIWHSSAWVFGGGTKLTVL
notes: Recombinantly expressed as complete human IgG1 with a lambda light chain; HRP-labelled in the homologue and sandwich ELISAs, Cy5-labelled in flow cytometry; also called HRP-labelled 82C2; Cy5 labelled 82C2
[1]
  binding result: no binding
[2]
  binding result: no binding
[3]
  EC50 (read off the curve): ~0.05 nM
[4]
  Kd: 5.08 nM
  koff: 0.000861 s⁻¹
  kon: 173000 M⁻¹ s⁻¹
